± gives the uncertainty stated by the source.
B1: Zinc finger MYM-type protein 6, residues 427 to 504; numbered along this chain, O95789 (parent)
chain: KLKCQHCNHLFATKPELLFYKGKMFLFCGKNCSDEYKKKNKVVAMCDYCKLQKIIKETVRFSGVDKPFCSEVCKFLSA

Variants of: B1
Assay: abundance fitness (aPCA) (normalised: wild type 0, dead -1); higher = more abundant; growth selection in yeast, the domain comes from the species named
Conditions: Homo sapiens

Variant | abundance fitness
KLKCQHCNHLFATKPELLFYKGKMFLFCGKNCSDEYKKKNKVVAMCDYAKLQKIIKETVRFSGVDKPFCSEVCKFLSA | -0.604 ± 0.11
KLKCQHCNHLFATKPELLFYKGKMFLFCGKNCSDEYKKKNKVVAMCDYCKLQFIIKETVRFSGVDKPFCSEVCKFLSA | 0.088 ± 0.36
KLKCQHCNHLFATKPELLFYKPKMFLFCGKNCSDEYKKKNKVVAMCDYCKLQKIIKETVRFSGVDKPFCSEVCKFLSA | -0.33 ± 0.071
KLKCQHCNHLFATKPELLFTKGKMFLFCGKNCSDEYKKKNKVVAMCDYCKLQKIIKETVRFSGVDKPFCSEVCKFLSA | 0.019 ± 0.037
KLKCQHHNHLFATKPELLFYKGKMFLFCGKNCSDEYKKKNKVVAMCDYCKLQKIIKETVRFSGVDKPFCSEVCKFLSA | -0.575 ± 0.24
KLKCQHCNHLFATKPELLFYKGKMFLFCGKNCSDEYKKKNKVVAMCDYCKLQKIIKETVRFSGVDKPYCSEVCKFLSA | 0.439 ± 0.39
KLKCQHCNHLFATKPELLFYKGKMFLFCGKNCSDEYKKKNKVVAMCDLCKLQKIIKETVRFSGVDKPFCSEVCKFLSA | -0.496 ± 0.11
KLKCQHCNHLFATKPELLFYKGKMFLFCGKNCSDEYKKKNKVVAMCDKCKLQKIIKETVRFSGVDKPFCSEVCKFLSA | -0.496 ± 0.22
KLKCQHCNHLFATKPELLFYKGKMFLFCGKNCSDEYKKKNKVVAMCDYCKLQKIIKETVRFSGCDKPFCSEVCKFLSA | -0.432 ± 0.15
KLKCQHCNHLFATKPELLFYKGKMFLFCGKNCSDEYKKKNKVVAMCDYCKLQKIIKETVRFSGADKPFCSEVCKFLSA | -0.302 ± 0.13
KLKCQHCNHLFATKPELLFYKGKMALFCGKNCSDEYKKKNKVVAMCDYCKLQKIIKETVRFSGVDKPFCSEVCKFLSA | 0.033 ± 0.03
KLKCQHCNHLFATKPELLFYKGKMFLFCGKNCLDEYKKKNKVVAMCDYCKLQKIIKETVRFSGVDKPFCSEVCKFLSA | -0.089 ± 0.05
KLKCQHCNHLFATKPELLFYKGKMFEFCGKNCSDEYKKKNKVVAMCDYCKLQKIIKETVRFSGVDKPFCSEVCKFLSA | 0.118 ± 0.038
KLKCQHCNHLFWTKPELLFYKGKMFLFCGKNCSDEYKKKNKVVAMCDYCKLQKIIKETVRFSGVDKPFCSEVCKFLSA | -0.134 ± 0.036
KLKCQHCNHLFITKPELLFYKGKMFLFCGKNCSDEYKKKNKVVAMCDYCKLQKIIKETVRFSGVDKPFCSEVCKFLSA | 0.062 ± 0.19
KLKCQHCNHLFATKPELLFYKGKMFLFCGKNCSDEYQKKNKVVAMCDYCKLQKIIKETVRFSGVDKPFCSEVCKFLSA | 0.051 ± 0.084
KLKCQHCNHLFATKPELLFYKGKMFLFCGGNCSDEYKKKNKVVAMCDYCKLQKIIKETVRFSGVDKPFCSEVCKFLSA | -0.032 ± 0.029
KLKCQHCNHLFATKPELLFYKGKMFLFCGTNCSDEYKKKNKVVAMCDYCKLQKIIKETVRFSGVDKPFCSEVCKFLSA | -0.123 ± 0.046

Variant | abundance fitness
KLKCQHCNHLFATKPELLFYKGKMFLFCGKNCSDEYKKKNKVVAMCDYCKLQKIIKETVRFSGVDKPFCSESCKFLSA | 0.239 ± 0.092
KLKCQHCNHLFATKPELLFYKGKMFLFCGKNCSDEYKKKNKVVAMCDYCKLQKIIKETVRFSGVDKPFCSEWCKFLSA | 0.353 ± 0.094
KLKCQHCNHLFAKKPELLFYKGKMFLFCGKNCSDEYKKKNKVVAMCDYCKLQKIIKETVRFSGVDKPFCSEVCKFLSA | -0.056 ± 0.051
KLKCQHCNHLFARKPELLFYKGKMFLFCGKNCSDEYKKKNKVVAMCDYCKLQKIIKETVRFSGVDKPFCSEVCKFLSA | -0.087 ± 0.028
KLKCQHCNHLFATDPELLFYKGKMFLFCGKNCSDEYKKKNKVVAMCDYCKLQKIIKETVRFSGVDKPFCSEVCKFLSA | -0.081 ± 0.068
KLKCQHCNHLFATFPELLFYKGKMFLFCGKNCSDEYKKKNKVVAMCDYCKLQKIIKETVRFSGVDKPFCSEVCKFLSA | -0.298 ± 0.046
KQKCQHCNHLFATKPELLFYKGKMFLFCGKNCSDEYKKKNKVVAMCDYCKLQKIIKETVRFSGVDKPFCSEVCKFLSA | 0.099 ± 0.059
KSKCQHCNHLFATKPELLFYKGKMFLFCGKNCSDEYKKKNKVVAMCDYCKLQKIIKETVRFSGVDKPFCSEVCKFLSA | 0.031 ± 0.038
KLKPQHCNHLFATKPELLFYKGKMFLFCGKNCSDEYKKKNKVVAMCDYCKLQKIIKETVRFSGVDKPFCSEVCKFLSA | -0.681 ± 0.14
KLKCQHCNHLFATKPELLFYKGKMFLFCGKNCSDEYKKKNKVVAMCDYCKLQKIIKEAVRFSGVDKPFCSEVCKFLSA | -0.585 ± 0.11
KLKCQHCNHLFATKPELLFYKGKMFLFCGKNCSDEYKKKNKVVAYCDYCKLQKIIKETVRFSGVDKPFCSEVCKFLSA | 0.35 ± 0.14
KLKCQHCNHLFATKPELLFYKGKMFLFCGKNCSDEYKGKNKVVAMCDYCKLQKIIKETVRFSGVDKPFCSEVCKFLSA | -0.026 ± 0.027
KLKCQHCNHLFATKPELLFYKGKMFLFCGKNCSDEYKEKNKVVAMCDYCKLQKIIKETVRFSGVDKPFCSEVCKFLSA | -0.014 ± 0.041
KLKCQHCNHLFATKPELLFYKGKMFLFCGKNCSDEYKSKNKVVAMCDYCKLQKIIKETVRFSGVDKPFCSEVCKFLSA | -0.027 ± 0.038
KLKCQHCNHLFATKPELLFYKGKMFLFCGKNCSDEYKKKNKVVAMCDYCKLQKIIKETVRFSGVDKPFCSEVCKFLRA | -0.394 ± 0.09
KLKCQHCNHLFATKPELLFYKGKMFLFCEKNCSDEYKKKNKVVAMCDYCKLQKIIKETVRFSGVDKPFCSEVCKFLSA | -0.131 ± 0.069
KLKCQHCNHLFATKPELLFYKGKMFLFCKKNCSDEYKKKNKVVAMCDYCKLQKIIKETVRFSGVDKPFCSEVCKFLSA | -0.004 ± 0.07
